The values that follow come from US20080008651A1, “Screening Methods and Transgenic Animals for the Treatment of Beta-Globin Related Disease and Conditions” (THE REGENTS OF THE UNIVERSITY OF MICHIGAN, published 2008).

Series [1] addresses TR4 coexpressed with dnTR2 dnTR2 chain: three Lys/Arg to Glu in DNA binding domain (Mus musculus) (UniProt P49117+Q505F1). Kind of series: EMSA. To be noted: TR4 binding diminished by about 80% (TR4 alone = 100%).
The target in series [2] is TR4 coexpressed with dnTR4 dnTR4 chain: three Lys/Arg to Glu in DNA binding domain (Mus musculus) (UniProt P49117+P49117). Kind of series: EMSA. To be noted: TR4 binding diminished by about 80% (TR4 alone = 100%).
Series [3] has as its target T1, DRED complex (TR2/TR4 heterodimer DNA-binding core) (Mus musculus, UniProt Q505F1;P49117 Q505F1:1-590,P49117:1-596).
T1 sequence 1: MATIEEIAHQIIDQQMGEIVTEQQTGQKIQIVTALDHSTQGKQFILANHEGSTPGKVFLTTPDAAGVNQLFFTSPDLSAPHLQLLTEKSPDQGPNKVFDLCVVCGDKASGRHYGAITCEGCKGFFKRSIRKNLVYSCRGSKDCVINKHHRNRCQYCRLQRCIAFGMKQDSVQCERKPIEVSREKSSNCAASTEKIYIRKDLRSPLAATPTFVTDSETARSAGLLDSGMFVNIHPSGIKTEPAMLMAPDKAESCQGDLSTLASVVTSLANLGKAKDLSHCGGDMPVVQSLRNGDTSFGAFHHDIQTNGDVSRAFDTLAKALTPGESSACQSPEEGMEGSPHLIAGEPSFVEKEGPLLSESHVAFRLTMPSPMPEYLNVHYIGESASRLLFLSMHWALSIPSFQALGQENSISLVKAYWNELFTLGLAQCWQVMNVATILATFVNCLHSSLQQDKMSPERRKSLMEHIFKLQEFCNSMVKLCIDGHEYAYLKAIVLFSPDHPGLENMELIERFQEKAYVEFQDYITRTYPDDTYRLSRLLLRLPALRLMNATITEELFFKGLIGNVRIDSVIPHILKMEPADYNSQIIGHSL
T1 sequence 2: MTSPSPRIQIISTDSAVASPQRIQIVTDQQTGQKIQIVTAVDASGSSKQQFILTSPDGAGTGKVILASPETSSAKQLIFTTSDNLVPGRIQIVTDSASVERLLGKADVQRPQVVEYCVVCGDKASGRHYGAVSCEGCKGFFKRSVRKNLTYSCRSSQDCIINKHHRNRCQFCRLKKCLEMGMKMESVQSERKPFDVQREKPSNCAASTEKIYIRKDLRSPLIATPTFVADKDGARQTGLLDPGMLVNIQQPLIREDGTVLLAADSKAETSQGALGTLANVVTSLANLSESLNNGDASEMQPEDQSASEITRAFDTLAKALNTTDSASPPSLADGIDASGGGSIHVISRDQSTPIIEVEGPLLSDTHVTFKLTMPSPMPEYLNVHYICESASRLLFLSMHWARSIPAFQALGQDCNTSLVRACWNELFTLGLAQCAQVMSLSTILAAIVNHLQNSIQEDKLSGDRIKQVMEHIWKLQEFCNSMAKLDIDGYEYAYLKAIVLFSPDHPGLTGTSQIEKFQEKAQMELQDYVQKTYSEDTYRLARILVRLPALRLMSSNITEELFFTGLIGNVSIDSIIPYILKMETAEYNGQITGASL
Kind of series: competition; EMSA competition vs 1.1 nM 32P epsilon distal DR probe. To be noted: protein: extract; tags: native, MEL mouse erythroleukemia cell nuclear extract; blunt ended. The protocol:
(§1) Electrophoretic Gel Mobility Shift Assay (EMSA). Nuclear extracts preparation, binding reactions, and electrophoresis were performed as described previously (Tanimoto et al., 2000). The following blunt ended oligonucleotides were used as probes or competitors in EMSA (only sense strands are shown): ε distal DR, 5′-[…]-3′ (SEQ ID NO: 19); ε proximal DR, 5′-[…]-3′ (SEQ ID NO: 20); γ DR, 5′-[…]-3′ (SEQ ID NO: 21); β, 5′-[…]-3′ (SEQ ID NO: 22); εy distal DR, 5′-[…]-3′ (SEQ ID NO: 23); εy proximal DR, 5′-[…]-3′ (SEQ ID NO: 24); βh1 DR, 5′-[…]-3′ (SEQ ID NO: 25); β^major, 5′-[…]-3′ (SEQ ID NO: 26).
(§2) Free and bound ³²P-labeled probe was quantified on a PhosphoImager. The competitive binding experiments were then performed using 1.1 nM ³²P-labeled ε distal DR probe and 70 pM to 2 μM of each competitor double-strand oligonucleotide to determine the 50% inhibitory concentration (IC₅₀). The equilibrium dissociation constant (Ki) for each competitor was then determined by the following equation (Cheng and Prusoff, 1973): […]

The target in series [4] is T1, DRED complex (TR2/TR4 heterodimer …). Kind of series: competition; EMSA competition vs 1.1 nM 32P epsilon distal DR probe; judged too low for functional association. The note with it: protein: extract; tags: native, MEL mouse erythroleukemia cell nuclear extract; blunt ended. The protocol: as §1, §2
For series [5], the target named is T2, mouse TR4 orphan nuclear receptor, Flag-tagged at the amino terminus, wild type (mouse, UniProt P49117 1-596).
T2 construct: also called wild type TR4; not shown: Flag tag at the amino terminus
T2 sequence (looked up): T1 sequence 2
Kind of series: EMSA of nuclear extracts of co-transfected 293T cells on the ε distal DR probe; heterodimer inferred. The protocol: 20 μg of expression plasmid was mixed with 40 μl of lipofectamine 2000 (Invitrogen) and then added to each dish according to the manufacturer's instruction. Forty-eight hours after transfection, cells were harvested and nuclear extracts were prepared.
as §1
After transfection, nuclear extracts were prepared and examined for binding to the ε distal-DR element by EMSA (FIG. 1C). […] When TR2 and TR4 were coexpressed to generate TR2/TR4 heterodimers (Tanabe et al., 2002), generated an even more intense signal.

The target of series [6] is T1, DRED complex (TR2/TR4 heterodimer …). In words: competition; EMSA competition vs 1.1 nM 32P epsilon distal DR probe; unlabeled competitor. To be noted: protein: extract; tags: native, MEL mouse erythroleukemia cell nuclear extract; label: 32P (probe); blunt ended. The protocol: as §1, §2
Series [7] shares this target. In words: EMSA; saturation binding, MEL nuclear extract. The note with it: protein: extract; tags: native, MEL mouse erythroleukemia cell nuclear extract; label: 32P (probe); blunt ended. The protocol: as §1, §2

As to “CCCTGAGGACACAGGTCAGCCTTG (double strand) [epsilon distal DR]”, the binding signal in series [1] and in series [2] was 20% throughout.

B1: gamma DR (dsDNA)
DNA 1: GCCTTGCCTTGACCAATAGCCTTGACAA
DNA 2: TTGTCAAGGCTATTGGTCAAGGCAAGGC
B1 gave a Ki in series [3] of 13 nM. In other words, the double-digit nanomolar range.

B2: beta-major (dsDNA)
DNA 1: TGGTAAGGGCCAATCTGCTCACA
DNA 2: TGTGAGCAGATTGGCCCTTACCA
As for B2, in series [4], the affinity, expressed as Ki, was 170 nM. In other words, the sub-micromolar range.

B3: beta (dsDNA)
DNA 1: TAGGGTTGGCCAATCTACTCCC
DNA 2: GGGAGTAGATTGGCCAACCCTA
For the molecule B3, the inhibition constant (Ki) in series [4] was 420 nM.

B4: mouse TR2 orphan nuclear receptor, Flag-tagged at the amino terminus, wild type (receptor, UniProt Q505F1 1-590, looked up)
chain: T1 sequence 1
notes: also called wild type TR2; not shown: Flag tag at the amino terminus
On to B4, for which the binding result in series [5] was “binds”.

B5: epsilon proximal DR (dsDNA)
DNA 1: CAGCCTTGACCAATGACTTTTA
DNA 2: TAAAAGTCATTGGTCAAGGCTG
For B5, in series [3], the inhibitory constant (Ki) was determined as 2.8 nM.

B6: epsilon-y distal DR (dsDNA)
DNA 1: CCATGAGGACCACGGGTCAGGCTGA
DNA 2: TCAGCCTGACCCGTGGTCCTCATGG
B6 yielded a Ki in series [3] of 4.1 nM. The Ki values of the last two molecules are within 1.5-fold of each other.

B7: epsilon-y proximal DR (dsDNA)
DNA 1: TCAGGCTGACCAATGGCTTCAAA
DNA 2: TTTGAAGCCATTGGTCAGCCTGA
In turn, B7 returned a Ki in series [4] of 59 nM. This lies in the double-digit nanomolar range.

B8: epsilon distal DR (dsDNA)
DNA 1: CCCTGAGGACACAGGTCAGCCTTG
DNA 2: CAAGGCTGACCTGTGTCCTCAGGG
B8 displayed an inhibition constant (Ki) in series [6] of 0.97 nM. Also, the Kd in series [7] was 0.56 nM.

B9: beta-h1 DR (dsDNA)
DNA 1: CCCAGACTCTCTTGACCAATAGCCTCAGAGTCCT
DNA 2: AGGACTCTGAGGCTATTGGTCAAGAGAGTCTGGG
B9 had a Ki in series [3] of 18 nM. In other words, the double-digit nanomolar range.
